Read-outs that look alike come from different tables or passages of the source. One block for each substance: values may come before it.
Experiments:
[1] = target: purified skeletal muscle actin (rabbit) (UniProt P68135); assay: inhibition of actin polymerization (ultracentrifugation assay); apparent; skeletal muscle actin (18 µM) with increasing GST-RPEL (350–422 aa); 100 mM KCl, 2 mM MgCl2, 10 mM Tris-HCl pH 7.8, 20°C 60 min (legend: room temperature 30 minutes); 130,000 g 15 min; fraction of depolymerized actin by densitometry, nonlinear regression
[2] = target: actin (Oryctolagus cuniculus) (UniProt P68135); conditions: cited from earlier work
[3] = target: actin (Oryctolagus cuniculus) (UniProt P68135); conditions: cited from earlier work; remark: listed apart in the source
[4] = target: actin (Oryctolagus cuniculus) (UniProt P68135); conditions: cited from earlier work; remark: listed apart in the source

Kd [1]: 0.018 µM
stoichiometry N [1]: 1.21
Substance: GST-RPEL construct of scapinin, 350–422 aa (domain or fragment)

Substance: MAL RPEL1 (from UniProt Q8K4J6)
Kd [2]: 5.4 µM

Substance: MAL RPEL2 (from UniProt Q8K4J6)
Kd [3]: 2.3 µM

Substance: MAL RPEL3 (from UniProt Q8K4J6)
Kd [4]: 18.8 µM

From paper PMC2626280
